The labels stand for the following.
T1: Abp1 SH3 (ABP1_YEAST), P15891
T1 chain: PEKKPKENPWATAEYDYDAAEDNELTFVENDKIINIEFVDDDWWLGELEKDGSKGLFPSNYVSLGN

The target in this test is T1, Abp1 SH3 (ABP1_YEAST), P15891. In words: SPOT array.
Take STSFSPSPLIRRP [YKL108W 250-262]: the normalised SPOT signal, Boehringer light units (BLU); mean over the file's lines of this peptide amounted to 550. Turning to SRKNSMSPTRKRP [YNL152W 392-404], the normalised SPOT signal, Boehringer light units (BLU); mean over the file's lines of this peptide came to 209.

As to SREDRKNRAPPQRP [YER131W 88-101], the normalised SPOT signal, Boehringer light units (BLU); mean over the file's lines of this peptide was 109. In turn, SQATKSSPFRSRP [YKR089C 884-896] yielded a normalised SPOT signal, Boehringer light units (BLU); mean over the file's lines of this peptide of 1250. With SPSPSPSPLNPYRP [YNL298W 398-411], the normalised SPOT signal, Boehringer light units (BLU); mean over the file's lines of this peptide was determined as 21.8. The molecule SSGPSASHRGPRRP [YMR280C 1387-1400] had a normalised SPOT signal, Boehringer light units (BLU); mean over the file's lines of this peptide of 390.

For the molecule SSVSAHQPTQEKP [YGL008C 14-26], the normalised SPOT signal, Boehringer light units (BLU); mean over the file's lines of this peptide is 161. Molecule SVRVQGEPLDPKRP [YGL027C 137-150] yielded a normalised SPOT signal, Boehringer light units (BLU); mean over the file's lines of this peptide of 80. For SSSRSVVPILPKP [YER040W 495-507], the normalised SPOT signal, Boehringer light units (BLU); mean over the file's lines of this peptide was 329. In turn, SYILEELPIHLRP [YPL110C 407-419] registered a normalised SPOT signal, Boehringer light units (BLU); mean over the file's lines of this peptide of 140.

Consider SSYAHKRSELPTRP [YNL139C 1440-1453], for which the normalised SPOT signal, Boehringer light units (BLU); mean over the file's lines of this peptide was 201.

Molecule SVQQSQILIQPERP [YCR033W 957-970] had a normalised SPOT signal, Boehringer light units (BLU); mean over the file's lines of this peptide of 73. Then SSSSSPLENTPPRP [YML027W 280-293], with 159; and SSTIKRYPSRYKP [YFR019W 125-137], with 238. For SSTLKSNSSLPPKP [YGR178C 412-425] the value was 69; for STFLYRFPINGRP [YER019W 144-156], 89.3.

Turning to SPMLDAAPPTTKP [YER116C 142-154], the normalised SPOT signal, Boehringer light units (BLU); mean over the file's lines of this peptide is 158. For SSSSSILPSTPTRP [YPL202C 310-323] the value was 70.9; for SNRATLLTTLPMKP [YIL056W 426-439], 243. For SSALMQGQKTPQKP [YLR079W 24-37] the value was 335; for STGGVKKPHRYKP [YBR010W 32-44], 130. In turn, SVASLKRVIVPDKP [YNL020C 51-64] gave a normalised SPOT signal, Boehringer light units (BLU); mean over the file's lines of this peptide of 388. On to SVQNAKFPRASKP [YPL160W 891-903], for which the normalised SPOT signal, Boehringer light units (BLU); mean over the file's lines of this peptide stood at 240. Then SQRSSDLPEWRRP [YJR035W 262-274], with 377; and SQSANLAPSNLRP [YER005W 601-613], with 95.4; and SNPAYDGPLFSKP [YNL307C 267-279], with 95.6. SSILHDLPRKVRP [YJL076W 1069-1081] had a normalised SPOT signal, Boehringer light units (BLU); mean over the file's lines of this peptide of 786. In the case of SSAIEDSPPDFKP [YBL054W 173-185], the normalised SPOT signal, Boehringer light units (BLU); mean over the file's lines of this peptide came to 85.8.

Consider STIPDNHPVLNKP [YAL043C 192-204], for which the normalised SPOT signal, Boehringer light units (BLU); mean over the file's lines of this peptide was 117. Regarding SPDQWSVPAGHRP [YPR181C 246-258], the normalised SPOT signal, Boehringer light units (BLU); mean over the file's lines of this peptide was found to be 65.3. Take STKPEKPPVVKKP [YNL106C 1109-1121]: the normalised SPOT signal, Boehringer light units (BLU); mean over the file's lines of this peptide worked out at 13300. For SQEVQRVPWDNKP [YGL114W 7-19] the value was 86.2; for SVVISKNPDFFKP [YOR160W 317-329], 62.4; for SSPTKVASSSPLKP [YAL019W 19-32], 104.

Turning to STFSDHEPQHTKP [YBL054W 203-215], the normalised SPOT signal, Boehringer light units (BLU); mean over the file's lines of this peptide was determined as 96.8. SRNFTLNYAFPIKP [YBL058W 387-400] registered a normalised SPOT signal, Boehringer light units (BLU); mean over the file's lines of this peptide of 80.1. In the case of SSSPKKGPLSIKP [YNL230C 233-245], the normalised SPOT signal, Boehringer light units (BLU); mean over the file's lines of this peptide turned out to be 347.

On to SPAKQKTPPSPAKP [YBR102C 22-35], for which the normalised SPOT signal, Boehringer light units (BLU); mean over the file's lines of this peptide was found to be 54.6. Then SPEENTDFALPMKP [YDR273W 125-138], with 98.8; and SVLAPYLPFLMKP [YHR099W 870-882], with 8.6; and SSIFEDHHITPSKP [YDR451C 284-297], with 0.

SPNEIFSPSYSKP [YGL092W 308-320] showed a normalised SPOT signal, Boehringer light units (BLU); mean over the file's lines of this peptide of 66.1. For SNYITDRPFTRKP [YPR008W 490-502] the value was 409; for SRGRYGLPLSSRP [YDR419W 378-390], 327; for STSSENRLRTPLKP [YGL021W 216-229], 76.6. On to SVYSNYLPKGNRP [YMR167W 278-290], for which the normalised SPOT signal, Boehringer light units (BLU); mean over the file's lines of this peptide came out at 216. The molecule STKKPRPPVKSKP [YOR367W 152-164] came in with a normalised SPOT signal, Boehringer light units (BLU); mean over the file's lines of this peptide of 67200. In turn, SPFPADTPSSNRP [YGL201C 3-15] yielded a normalised SPOT signal, Boehringer light units (BLU); mean over the file's lines of this peptide of 114.

For the molecule STRLTLTKWDPSKP [YKL027W 380-393], the normalised SPOT signal, Boehringer light units (BLU); mean over the file's lines of this peptide stood at 209.

In the case of STMVTYLPPSSKP [YKL020C 555-567], the normalised SPOT signal, Boehringer light units (BLU); mean over the file's lines of this peptide turned out to be 136. For SSTKVPEPPSWKP [YIL156W 492-504] the value was 34.3. STRAKGIAFHPSRP [YDL145C 11-24] gave a normalised SPOT signal, Boehringer light units (BLU); mean over the file's lines of this peptide of 119. As to SRQAIPPPVPNRP [YLR144C 4-16], the normalised SPOT signal, Boehringer light units (BLU); mean over the file's lines of this peptide was determined as 2950. Then SPMRGVAPTASKP [YPL137C 250-262], with 2700.

Source of the values: PMC314469, “Protein Interaction Networks by Proteome Peptide Scanning” (PLoS Biology, 2004).
